US20170044260A1 (Innovent, published 2017)
Substitutions are numbered along the chain they refer to. Names may count otherwise. Each block holds one molecule with its values, some of them ahead of it.

Key:
cynoPD-1_Fc = cynoPD-1_Fc (cyno, UniProt B0LAJ3 25-170); experiment: bio-layer interferometry (ForteBio), monovalent: Fab in solution, cynoPD-1_Fc on sensor tip
cynoPD-1_Fc (cyno) = cynoPD-1_Fc (cyno) (UniProt B0LAJ3); experiment: as above
human PD-1 on cells [1] = molecular target: T1, human PD-1 on cells (human, UniProt Q15116 25-288); experiment: flow cytometry blocking: CHO cells with human PD-1, 100 nM antibody, then PD-L2-FITC (competitor); remaining PD-L2-FITC signal
T1 sequence (Q15116 25-288 limits assumed): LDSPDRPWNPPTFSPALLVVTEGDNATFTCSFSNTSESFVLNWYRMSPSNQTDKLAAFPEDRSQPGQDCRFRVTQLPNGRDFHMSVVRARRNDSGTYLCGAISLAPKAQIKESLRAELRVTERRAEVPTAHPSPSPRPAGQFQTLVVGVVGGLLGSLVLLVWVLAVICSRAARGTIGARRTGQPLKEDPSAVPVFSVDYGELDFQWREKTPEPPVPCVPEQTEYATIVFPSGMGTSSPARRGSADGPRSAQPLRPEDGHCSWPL

human PD-1 on cells [2] = molecular target: T1, human PD-1 on cells; experiment: flow cytometry on CHO cells with human PD-1, PE-labelled secondary antibody
Experimental: Cells are then washed 3×, and are incubated with a secondary antibody (PE-labelled, at final concentration of 5 μg/ml) in PBS 1% BSA for 30 min on ice (protected from light). Cells are washed 3× and analyzed via flow cytometry. Flow cytometry is performed on an Accuri C6 system (BD Biosciences) and MFIs are calculated on the C6 software. EC50s are calculated on Graphpad software.

human PD-1 on cells [3] = molecular target: T1, human PD-1 on cells; experiment: cell-based or functional assay
human PD-1 on cells [4] = molecular target: T1, human PD-1 on cells; experiment: cell-based or functional assay; remark: listed apart in the source
hPD-1_Fc [5] = molecular target: T2, hPD-1_Fc (human, UniProt Q15116 25-167, limits assumed); experiment: bio-layer interferometry (ForteBio), monovalent: Fab in solution, hPD-1_Fc on sensor tip
T2 construct: also called human PD-1_Fc; not shown: Fc part
T2 sequence (Q15116 25-167 limits assumed): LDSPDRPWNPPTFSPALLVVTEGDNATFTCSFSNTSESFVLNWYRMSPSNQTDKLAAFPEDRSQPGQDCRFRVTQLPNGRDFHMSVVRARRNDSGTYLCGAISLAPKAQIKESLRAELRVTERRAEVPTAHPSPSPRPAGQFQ

hPD-1_Fc [6] = molecular target: T2, hPD-1_Fc; experiment: bio-layer interferometry, PD-1_Fc on the sensor tip; reference nivolumab and pembrolizumab
b-PD-1 monomer [7] = molecular target: T3, b-PD-1 monomer (human, UniProt Q15116 25-167, limits assumed, biotinylated (b-); site not stated); experiment: MSD solution equilibrium titration, monovalent KD against human PD-1; monovalent KD, IgG1 format
T3 construct: also called human PD-1; antigen of the MSD assay
T3 sequence (Q15116 25-167 limits assumed): as above
Experimental: (§1) Equilibrium affinity measurements are performed as previously described (Estep, P., et al., MAbs, 2013. 5(2): p. 270-8). […] Antibodies diluted at 20 nM in PBS are coated onto standard bind MSD-ECL plates overnight at 4° C. or at room temperature for 30 min. Plates are blocked with BSA for 30 min whilst shaking at 700 rpm. Plates are then washed 3× with wash buffer (PBSF+0.05% Tween 20). SET samples are applied and incubated on the plates for 150 s with shaking at 700 rpm followed by one wash. Antigen captured on a plate is detected with 250 ng/mL sulfotag-labeled streptavidin in PBSF by incubation on the plate for 3 min. The plates are washed three times with wash buffer and are then read on the MSD Sector Imager 2400 instrument using 1× Read Buffer T with surfactant. The percent free antigen is plotted as a function of titrated antibody in Prism and fit to a quadratic equation to extract the KD. To improve throughput, liquid handling robots are used throughout MSD-SET experiments, including for SET sample preparation.

hPD-1_HIS [8] = molecular target: T4, hPD-1_HIS (human, UniProt Q15116 25-167, limits assumed); experiment: bio-layer interferometry, antibody on the sensor tip; reference nivolumab and pembrolizumab
T4 construct: not shown: His tag
T4 sequence (Q15116 25-167 limits assumed): as above

hPD-1_HIS [9] = molecular target: T4, hPD-1_HIS; experiment: bio-layer interferometry (ForteBio), monovalent: hPD-1_HIS in solution, IgG on sensor tip
Experimental: Briefly, ForteBio affinity measurements are performed by loading IgGs online onto AHQ sensors. Sensors are equilibrated off-line in assay buffer for 30 min and then monitored on-line for 60 seconds for baseline establishment. Sensors with loaded IgGs are exposed to 100 nM antigen for 5 min, afterwards they are transferred to assay buffer for 5 min for off-rate measurement. Kinetics are analyzed using the 1:1 binding model.

[10] = molecular target: T5, human PD-1 (antigen of the avid KD measurement by MSD) (human, UniProt Q15116 25-167, limits assumed); experiment: MSD solution equilibrium titration, avid KD against human PD-1; avid KD, IgG1 format
T5 sequence (Q15116 25-167 limits assumed): as above
Experimental: as §1

[11] = molecular target: T5, human PD-1 (antigen of the avid KD …); experiment: MSD solution equilibrium titration, avid KD against human PD-1
Experimental: as §1

b-PD-1 monomer [12] = molecular target: T3, b-PD-1 monomer; experiment: MSD solution equilibrium titration, monovalent KD against human PD-1
Experimental: as §1

[13] = molecular target: T6, human PD-1-Fc (R&D Systems) (human, UniProt Q15116 25-167); experiment: SPR (Biacore T200), human PD-1-Fc immobilized, antibody stored 4 weeks at 40° C. as analyte, 37° C.
T6 construct: not shown: Fc part of the bought fusion protein; not described
T6 sequence (Q15116 25-167 limits assumed): as above
Experimental: (§2) All sample analytes are run in 3-fold series dilutions from their starting concentration (90 nM), 8 total dilutions with one duplicate at a middle concentration and a zero. The analysis is performed at 37° C. The contact time for each sample is 180 sec at 30 μl/min. The dissociation time: 300 seconds for 5 lower concentrations and 1200 (Fab), or 2400 (T=0) or 3000 (4 weeks 4° C., 25° C., 40° C.) seconds for 3 higher concentrations. The immobilized surface is regenerated for 6-8 seconds with 0.4% SDS at 30 ul/min, and then stabilized for 5 seconds. Binding kinetics are analyzed using the Biacore T200 Evaluation software (Version 3.0). Data are referenced to a blank flow cell, and the data are fit to a 1:1 binding model.

[14] = molecular target: T7, biotinylated PD-1-Fc fusion protein (human, UniProt Q15116 25-170, limits assumed, biotinylated; site not stated); experiment: ELISA blocking: antibody mixed with biotinylated PD-1-Fc, plate coated with PD-L1-Fc (competitor)
T7 construct: also called human PD-1; not shown: Fc part; not described
T7 sequence (Q15116 25-170 limits assumed): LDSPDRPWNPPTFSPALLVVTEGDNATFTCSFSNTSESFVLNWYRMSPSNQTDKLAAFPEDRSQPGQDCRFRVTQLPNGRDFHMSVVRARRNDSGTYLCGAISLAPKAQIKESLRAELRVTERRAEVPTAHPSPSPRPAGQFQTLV

[15] = molecular target: T6, human PD-1-Fc (R&D Systems); experiment: SPR (Biacore T200), human PD-1-Fc immobilized, antibody as analyte, 37° C.
Experimental: as §2

[16] = molecular target: T6, human PD-1-Fc (R&D Systems); experiment: SPR (Biacore T200), human PD-1-Fc immobilized, antibody stored 4 weeks at 4° C. as analyte, 37° C.
Experimental: as §2

[17] = molecular target: T7, biotinylated PD-1-Fc fusion protein; experiment: ELISA blocking: antibody mixed with biotinylated PD-1-Fc, plate coated with PD-L2-Fc (competitor)
[18] = molecular target: T6, human PD-1-Fc (R&D Systems); experiment: SPR (Biacore T200), human PD-1-Fc immobilized, antibody stored 4 weeks at 25° C. as analyte, 37° C.
Experimental: as §2

Chain of cynoPD-1_Fc (B0LAJ3 entry or part of it limits assumed): as the sequence (Q15116 25-170 limits assumed) above, with D2E, P10A, V19L, T35A, Q75R, T144A counted along it
Chain of cynoPD-1_Fc (cyno) (B0LAJ3 entry or part of it limits assumed): as the sequence (Q15116 25-170 limits assumed) above, with D2E, P10A, V19L, T35A, Q75R, T144A counted along it

Kd (cynoPD-1_Fc): 1.2 nM
Molecule: Fab of Nivolumab in IgG1 format

Kd (cynoPD-1_Fc (cyno)): 0.47 nM
Molecule: Fab of Pembrolizumab in IgG1 format

MFI (PD-L2-FITC) (human PD-1 on cells [1]): 183000 MFI
Molecule: control IgG (antibody)

Second part, the molecule before the results:

B1: Antibody G (S228P IgG4) (antibody, V domains shown)
VH: QVQLVQSGAEVKKPGSSVRVSCKASGGTLSSYAISWVRQAPGQGLEWMGLIIPMFGAAGYAQRFQGRVTITADESASTAYMELSSLRSEDTAVYYCARAEHSSTGTFDYWGQGTLVTVSS
VL: DIQMTQSPSSVSASVGDRVTITCRASQGISSWLAWYQQKPGKAPKLLISAASSLQSGVPSRFSGSGSGTDFTLTISSLQPEDFATYYCQQANHLPFTFGGGTKVEIKR
EC50 (human PD-1 on cells [2]): 1.76 nM
IL-2 secretion fold change vs. IgG control, 0.01 nM IgG (mixed lymphocyte reaction) (human PD-1 on cells [3]): 1.36 fold
IL-2 secretion fold change vs. IgG control, 0.1 nM IgG (mixed lymphocyte reaction) (human PD-1 on cells [3]): 1.91 fold
IL-2 secretion fold change vs. IgG control, 1 nM IgG (mixed lymphocyte reaction) (human PD-1 on cells [3]): 3.12 fold
IL-2 secretion fold change vs. IgG control, 10 nM IgG (mixed lymphocyte reaction) (human PD-1 on cells [3]): 2.62 fold
IL-2 secretion fold change vs. IgG control, 100 nM IgG (mixed lymphocyte reaction) (human PD-1 on cells [3]): 2.45 fold
IFN-γ secretion fold change vs. IgG control, 0.01 nM IgG (mixed lymphocyte reaction) (human PD-1 on cells [4]): 1.17 fold
IFN-γ secretion fold change vs. IgG control, 0.1 nM IgG (mixed lymphocyte reaction) (human PD-1 on cells [4]): 1.91 fold
IFN-γ secretion fold change vs. IgG control, 1 nM IgG (mixed lymphocyte reaction) (human PD-1 on cells [4]): 2.48 fold
IFN-γ secretion fold change vs. IgG control, 10 nM IgG (mixed lymphocyte reaction) (human PD-1 on cells [4]): 2.04 fold
IFN-γ secretion fold change vs. IgG control, 100 nM IgG (mixed lymphocyte reaction) (human PD-1 on cells [4]): 2.07 fold

B2: Fab of Antibody D in IgG1 format (Fab, V domains shown)
VH: B1 VH with R19K, L29F, G56D, A57T, R63K, T69A, A72V, A76T
VL: DIQMTQSPSSVSASVGDRVTITCRASQGISSWLAWYQQKPGKAPKLLISAASSLQSGVPSRFSGSGSGTDFTLTISSLQPEDFATYYCQQANHLPFTFGGGTKVEIK
notes: also called Fab in solution (row Antibody D in IgG1 format)
Kd (hPD-1_Fc [5]): 0.56 nM
fold lower KD than nivolumab and pembrolizumab (hPD-1_Fc [6]): 3 fold
Kd (cynoPD-1_Fc): 0.67 nM

B3: Antibody D in IgG1 format (antibody, V domains shown)
VH: B1 VH with R19K, L29F, G56D, A57T, R63K, T69A, A72V, A76T
VL: B2 VL
notes: IgG1 format, expressed in yeast; also called Antibody D in an IgG1 format and expressed in yeast
Kd (b-PD-1 monomer [7]): 0.012 nM
fold lower KD than nivolumab and pembrolizumab (hPD-1_HIS [8]): 6 fold
Kd (hPD-1_HIS [9]): 0.31 nM
Kd [10]: 0.0009 nM

B4: Fab of Antibody G in IgG1 format (Fab, V domains shown)
VH: B1 VH
VL: B2 VL
notes: also called Fab in solution (row Antibody G in IgG1 format)
Kd (hPD-1_Fc [5]): 0.49 nM
fold lower KD than nivolumab and pembrolizumab (hPD-1_Fc [6]): 4 fold
Kd (cynoPD-1_Fc): 0.59 nM

B5: Antibody G in IgG1 format (antibody, V domains shown)
VH: B1 VH
VL: B2 VL
notes: IgG1 format, expressed in yeast; also called Antibody G in an IgG1 format and expressed in yeast
Kd [11]: 0.001 nM
fold lower KD than nivolumab and pembrolizumab (hPD-1_HIS [8]): 4 fold
Kd (hPD-1_HIS [9]): 0.44 nM
Kd (b-PD-1 monomer [12]): 0.014 nM

B6: Antibody D (S228P IgG4) (antibody, V domains shown)
VH: B1 VH with R19K, L29F, G56D, A57T, R63K, T69A, A72V, A76T
VL: B1 VL
Kd [13]: 0.118 nM
koff [13]: 4.22e-05 s⁻¹
kon [13]: 358000 M⁻¹ s⁻¹
EC50 (human PD-1 on cells [2]): 0.978 nM
IC50 [14]: 0.3 nM
Kd [15]: 0.104 nM
koff [15]: 2.98e-05 s⁻¹
kon [15]: 286000 M⁻¹ s⁻¹
Kd [16]: 0.103 nM
koff [16]: 3.86e-05 s⁻¹
kon [16]: 377000 M⁻¹ s⁻¹
IC50 [17]: 0.34 nM
IL-2 secretion fold change vs. IgG control, 0.01 nM IgG (mixed lymphocyte reaction) (human PD-1 on cells [3]): 1.25 fold
IL-2 secretion fold change vs. IgG control, 0.1 nM IgG (mixed lymphocyte reaction) (human PD-1 on cells [3]): 1.64 fold
IL-2 secretion fold change vs. IgG control, 1 nM IgG (mixed lymphocyte reaction) (human PD-1 on cells [3]): 2.45 fold
IL-2 secretion fold change vs. IgG control, 10 nM IgG (mixed lymphocyte reaction) (human PD-1 on cells [3]): 2.63 fold
IL-2 secretion fold change vs. IgG control, 100 nM IgG (mixed lymphocyte reaction) (human PD-1 on cells [3]): 3.08 fold
IFN-γ secretion fold change vs. IgG control, 0.01 nM IgG (mixed lymphocyte reaction) (human PD-1 on cells [4]): 1.32 fold
IFN-γ secretion fold change vs. IgG control, 0.1 nM IgG (mixed lymphocyte reaction) (human PD-1 on cells [4]): 1.94 fold
IFN-γ secretion fold change vs. IgG control, 1 nM IgG (mixed lymphocyte reaction) (human PD-1 on cells [4]): 2.26 fold
IFN-γ secretion fold change vs. IgG control, 10 nM IgG (mixed lymphocyte reaction) (human PD-1 on cells [4]): 1.99 fold
IFN-γ secretion fold change vs. IgG control, 100 nM IgG (mixed lymphocyte reaction) (human PD-1 on cells [4]): 1.72 fold
Kd [18]: 0.102 nM
koff [18]: 3.6e-05 s⁻¹
kon [18]: 354000 M⁻¹ s⁻¹
